Experimental findings from article PMC6545883 are described below.

The term Vmax denotes the rate approached at saturating substrate. By kcat is commonly meant the number of substrate molecules converted per active site and unit of time at saturation. A word on the kcat/Km: it is the second-order rate constant that governs catalysis at low substrate concentration.

In this series the test system is NC(=O)c1ccc[n+]([C@@H]2O[C@H](COP(=O)(O)OP(=O)(O)OC[C@H]3O[C@@H](n4cnc5c(N)ncnc54)[C@H](OP(=O)(O)O)[C@@H]3O)[C@@H](O)[C@H]2O)c1. Description: purified protein. The note with it: varied: cofactor.

On to PtmO8 (Streptomyces platensis), for which the Km result is on record as “(1.11 ± 0.11) × 10^3 µM”, the Vmax is 3.7 µM/min, the kcat turned out to be 110 s⁻¹ and the kcat/Km was found to be 100000 M⁻¹ s⁻¹.
